Assay: soluble on expression in E. coli; label from the status in PepcDB or PDB records

Sequence	soluble on expression in E. coli
MGSDKIHHHHHHMAKQVVKRTIIGSITNHQQVQDDLDSLGFAASKLWNVARWTTGRIWNETGHIPEDGELKSYLKSHERYSDLHSQSSQRVLEELSEAFTGWYGKRRNGDSKANPPAYRKHNDEHPRSTLTFKGAGFKLDTTNGRLRLSKGENLKEYWSDFVLCDIQIRPDVDLSAIESVQQVRAVWNKQRNEWELHVVCNVTVDIPENSAEKTVGIDLGICNFAALAFENQESELYPLNCLKQDDYYYSKHIARCDDSSSEEATRLHAKKSNRRTHYFHTLSKHIVERCVDENVGVIAIGDLSGIREDEDGEMKDWGKHGNLDLHSWAFDRFTDMLEYKAEEVGISVKRVSEENTSKSCSSCGCERDTNRVERGLYVCNECELVANADVNGAENIRQQVSPNPRSEDRSNGWLAQPSTLLFDKETGVFAPQEQVVS	not soluble
SLLPQAVTQFEELVGMAEALLKGGGTMSTSASTLWRATNNSSPDSFASTCSNSNSNSSSPVSLKPEEEHQTDEKQFQIEKWQIARCNKSKPQKFINDLMQVLYTNEYMATHSLTGAKSSTSRDKAVKPAMNQNEVQEIIGVTKQLFPNTDDVSIRRMIGQKLNNCTKKPNLSKNLNSQDIK	soluble
GSNAFGRFIDKIYLNSVGWRGIRQRKTHLQMLIKQAVAHLHAKGLAVRVVDIAAGHGRYVLDALANEPAISEILLRDYSEVNVAQGQEMIAQRGMSGRVRFEQGDAFNPEELSALTPRPTLAIVSGLYELFPENEQVKNSLAGLANAIDPGGILIYTGQPWHPQLELIAGVLTSHKDGKPWVMRVRSQGEMDSLVHDAGFDKCTQRIDVWGIFTVSMAVRRDN	not soluble
MAHHHHHHMPSSSPLLGPVFEVITPRLWVRYLQRYLDVPELLTLSETCWTFFVRCNEEPLWRELCLRPPYIDVQQKLGLFTFRGSWKYTVCAYRAEGAGADRQSSRSSTVVLAQSRSIADASLRFNVLLPRIVSCLQVSGEMSSDDGAAWMSQLRSPCAAGTGAASEVSVGLDNGRDEGAAEATVGAEMSVGAWQENVLGKPYAPTLAVKYLSLSAGAINYFMRDGTFLRPPLHALRQPQHRLVRPHTEFTDYNWYGTCLLDLVPLPQWCTNAQFFATLRWKTSGNTRRLQCCGHATAALDDTGGVRGPSHLPDELRGVPGVVDRRYRLSVDAFQREYEVPNMPVVLTGCIEDWPARDTWQDIHFFHCFASEALRANGRTADGRRFRMSAADYLAYEVATNAEKPMYVFDKAALQRSTALRADYAIPPYFTEDFFSYMTEEDRPDYRWLLVGPDGSGSPFHTDPHGTCAWNAVLSGCKRVTLYPPHVVPPGVEEEWIHSDYYASEPCLRWYRTRGDSMPSGSAVCGTFSKEHAGEAYHGSARELPPVEALVFPGDLVFIPSGWWHQVLNIGHTVAVTHNLCSPLTFPRVVADMNAYADRTVRKRFQCALRRAGRDELAVQLRVPGAKRGVYAGHLL	not soluble
NKNLWATIRGNFTYASSKFSKYEEPDYSATPWRSKIGTKLSQEFGLIAERLFVDEEDVANSPKQQFGEYMAGDIKYKDINHDGIIDEQDRVPIGYPTTPEIIYGFGFSIGYKDFDFNCFFQGSSRSSFFISPADISPFIQPNDPNNELGGKQATNALLQIVADDHWSEANQNMYAFWPRLSDTAISNNNQKSTWWLRDGTFLRMKSAEIGYTLPKRISSKAKLENFRIYVSGTNLFNISKFKTWDTEMGGNGLGYPVQRVFNIGVQLSL	not soluble
MCMQAQDVTIRDQEIKLGQFIKLANLVETGGAAKEVIAEGRVTVNGAVDTRRGKTLRDGDVVCIGTACARVVAGAADDDDYFDEKTANDDFDPEVWRNM	not soluble
HHASPRKQGKKENGPPHSHTLKGRRLVFDN	soluble
MSLKIWITKNHKSKDDWSRSKKFIIIKITTHDGVEGWGEAFSIHLREKAIATIIIELFKEISKIKNLSINSLYNKISLLSDNHKGLDFSAATSAIEIAAWDIAGKLKNLPLNCLLTDNPKPDVSIYVTCWSDLRKDEEDYLDQVEKYFEKKYGGIKIYPLFENTSNSIKFVDRVRKIVGMEYPLMLDLAIPKDLDQTKTFLKEVSFLKPYWIEEPVDGENISLLTEIKNSFDMKVVTGEKQSGLPHFKEIIKRDAADILNPDISGIGGIIDMLYVSKEALNNDISISPHCWNSMSVSASAMLHVCSSIPNSEKAEIFPDYIEFTKEFCELPFNIVEDKAILNQSAGLGIVIHEDTLSNLSTYRMDEKNEGHHHHHH	soluble
MAHHHHHHMDSDLSAEIARIEAELAQDAELRQQQQQLAPQQPPASLFGFGQTAPVQPQQQQQQQLFQTQPPQPQQQPSNPFNVNASPFMPTPQQPDYSQQQQQQQQPIGSAGQAAAQASAPTPIIHSFSKDTDSRSIFIGNLPRGTDGTPTTTPEELVQFFADCGNILNCTVLKDRATGEPKGTAYIEFADYTAMGKAIDTKNNANFKGSTIIVCVSTSPLFSLAGFFG	soluble
MSLEFKGELTFEQELALSDMTSKENGLLHAETGFGKTVLGAALISERKTKTIILVHNKQLLDQWLDRLNCFLTFEEEEAIRYTASGREKVIGYVGQYGGTKKWLSKLVDVVMIQSLFKLENSQSLLDEYEMMIVDECHHVSALMFEKVVAQFRGKYLYGLTATPERKNGHEPIVFQRIGEILHTADKRETDFKRQLQLRFTSFGHLEIEKTKASNFIQLSDWIATDSVRNQMILKDILAQVAEGRNILVLVNRIQQIDVFEKLLKEKEVDDCYIISGKTKVRERTSLLETLEQLDKGFVLLSTGKYIGEGFDLPQLDTLILAAPFSWKNNLIQYAGRIHRNYKDKSLVRIFDYVDIHVPYLEKMFQKRQVAYRKMDYRVIEGEGHHHHHH	not soluble
MLKIIPGATGYFNKTLNSNQFDNEDAIKDKLDNRGSIKGKLNNIYGKSIDYAALRHRDIIIAKIDLFIQRITHNLWHARKKMCFLEHHHHHH	not soluble
MGSDKIHHHHHHAACQDEDHTVPTLPSGNDPEINDPVVEFYDWEKNRTELLTSTDMVLLYGGGHHRTPYTWDKERVSSYIRYVDTDNQSHWLFDSFLFLEIMDTGTGGANKMFAKGYNLESANQADWTKLIDYYFQSETGIGALDASVKEASAILGTPRQKRQIVISIPEPIVYQHPEQASSSTKYWGKIDNQTLDFSNSADRIKACKWYIDQVRAKFNEKNYQHVELAGFYWLAEKATDTRDILNAVAIYLNKLKYSFNWIPYYGADGYNQWKSLGFNYAYFQPNYFFNESVPDSRLEDACQKALTYDMHMELEFDDNALNSRGKAYRLKNYMSAFKKHGIWEKKRLAYYQGSASLLTLKKSGNAADTQLYHEFCNFVISRPIRSSH	not soluble
MGSDKIHHHHHHMANLPWITIIGLGEDGPEGLPPASRDALAAAEIIMGPARHLALIGPTNAQQVEWPVPFADGIDVLRGHGGRPVAVLVSGDPFWYGAGRAMSKAFGRDAWRAIPVPSVFSLVSSRMGWPIEDTLCIGLHARPFEQLRAKLAPGRRIIATLRDGPAVSGVAHFLRDTGFGGSTLTVCEAVGGPREVVTQVSVAEALKGGFSHPVTVAVELHGTGEVIPLASGRPDALFQTDGVMTKRPVRALTLSALAPRAGEHLWDIGGGSGSIAVEWALADRTCTATVVETRADRVALIRANVESFGLTDQVTVLEGMAPGAMADAPPANAVFIGGGLSPEMLQFVTALPKGTRVVANAVTLEAEAHLAQAQGSFGGDLMRIEIAHAQPLGPKRGWTSAYPVVQWSVTL	not soluble
MELKKIVEAILFSSSEPVDARELRKITGKDKVEILNAIGELIKDYESRDTSIEIIKVGEKYLMRVKPQYAEYVERFTVREFDRGTLRTLAVIALKQPITLAKVAKIRGNKCYEHVKKLQERGLVKAEKKGRSTILTTTEEFATYFGLDSAEPEKIKEALKGYLEAE	soluble
MGPEGALPKASEATVCANNSKVSSPGEKVVLWTREADRVILTMCQEQGAQPHTFSVISQQLGNKTPVEVSHRFRELMQLFHTACEASSEDEDDATSTSNADQLSDHGDLLSEEELDE	soluble
MGSDKIHHHHHHMFLSPYFLKQNQSISVSAQQASDFAKKIAQDFNPIHDVGAKRFCVPGDLLFALVLTQYGLSQSMKFTFAGMVGDGVELQFPEQVNDSFSICDNRDKTYLNVSRLGDISRCDAQTESFIRHYVAFSGHNFIDILMPLMKQHQVMINPDRPLVIYESMSFDLTTLDFVEVQLSLVQQELKIDGKRGDVTLHFELHSGDTLVGTGIKTLVMSGLRAYEEDQVQQMCAAYEGRKTDF	not soluble
MPTTPRSQPGTVGKDMAGALAGRHNDMPPISSNYQGRPGNANPNYRYQPSADNARNVADWTKSHMKTARENAAAKR	not soluble
SSKALLALKSQVEKRKAELQTQNRTKKWKRIGDQWKEEDKIQEQETFLEAHSPIESKQENGTETSNKEPPLLKEEVIERLRAWEQPATLFGETDYERYIRLRDLELRNSEESKGQRNIFQQKLRQFKEKDELENFYRVTEMELPSKGSAAQKVKEEIYAAEEGPEFFKTPEEYCFRYMRRLLKMWKAEVEQLDEETKRTSLGRKTLATFEQTKEYLKPLFRKLKKQQLDKSILTSLEKILRYVEQREYVLANDEYLRLAIGNAPWPVGATMVGIHARTAREKISEGKIAHVMNDEETRKYIQAVKRLITLSQKWYPTVPSKMVVG	soluble
MKIEEVRFGLVKIDGKEFDHDIVIYPSGRIERRMKEISKKKHGTSHKLDPEELEKYLVEDFDVLLVGTGIYGMLSLLPESKKLVEDKEVIEKPTKEALKLLEELWGKKRILAIIHVTC	soluble
MGHHHHHHSHMSQPPLLPASAETRKFTRALSKPGTAAELRQSVSEVVRGSVLLAKPKLIEPLDYENVIVQKKTQILNDCLREMLLFPYDDFQTAILRRQGRYICSTVPAKAEEEAQSLFVTECIKTYNSDWHLVNYKYEDYSGEFRQLPNKVVKLDKLP	not soluble
MGSDKIHHHHHHMYQKGVSTREIGHFIEKILGHSYSASTISQVTDVVTEDITQWQQRPLKKRYSVLYLDGTYLKLRREDVANEVVYLVVGVTEEGYREILGFYVGGQESANGWRNILLDLYSRGLEEVLLGVFDGLAGLEEAMKAVYPKADVQRCVVHKVRNALHAVRKKDQPAVAQDFKPIYQANTYEEAKNRFKEFKENWQKRYPKVVATWEKDLDVLLTFLSYPSTIRPMIYTTNIIERTMKEIKKRTKTMNSLPNEKAAEKIVYLQAIDYNERWATRRLRGFGEAYEALQEMFKQRYSGP	not soluble
SVFDIYKIGVGPSSSHTVGPMKAGKEFIDDLRAMGKLRDITKITVDVYGSLSLTGKGHHTDIAIIMGLAGNSPEKVDIDSIPGFIARVEETERLPVGMHCHTVSFPREGGMNFHKTNLELHENGMQIHAWIDDEKVYSKTYYSIGGGFIVDEENFGK	soluble
MSLDAENRAFYKIFTLKNNNLCKNSTLLEKIFKNNVEEFDFSLVKQNLEHEKNCVITSTMNQTIFFENMNSKEMGNKAYSFFNQTVLNNKGNTSLEEQISDIFDRCVYMNAEKSSSYIKLLEQDYNQVDMFVSLIFIGPYRHNLILITPVTLHLTLIPKNVKNNSFKNLFSGDMHFNMVTMTHLTEGHHHHHH	soluble
MKIAHISDLHVKCEWYEDRLGNNLVKYLNAQKPDLLIITGDLTDYGYYAEYKRAYSFLELIEVEKRVVVPGNHDARNEGYELFEEFFGTRMPYYEDEYMVIIGMDSSLPDREEGHIGRKGYKFLRETLKDKGDKLKIVALHHHVVPIPATGSDLAILTDAGNLMKVVDELGVELVLTGHKHKAWVWKLNETYYVTAGTATTRRLKAKDYPSFYMLYLEDEKNIRMEKVNTETLKVEEVYTLNFEEGKER	not soluble

Source: the DeepSol protein solubility set
